PMC10397247

T1: 4H3277-bN
T1 chain: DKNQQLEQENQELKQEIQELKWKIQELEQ

T2: 4H3298-bN
T2 chain: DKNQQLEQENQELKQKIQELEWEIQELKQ

T3: 4H3462-bN
T3 chain: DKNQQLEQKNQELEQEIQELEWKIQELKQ

T4: 4H348-bN
T4 chain: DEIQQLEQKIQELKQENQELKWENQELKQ

T5: 4H3497-bN
T5 chain: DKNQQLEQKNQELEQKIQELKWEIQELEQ

T6: 4H3613-bN
T6 chain: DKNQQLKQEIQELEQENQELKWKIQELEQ

T7: 4H3628-bN
T7 chain: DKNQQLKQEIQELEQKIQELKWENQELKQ

T8: 4H3926-bN
T8 chain: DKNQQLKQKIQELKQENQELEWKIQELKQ

T9: 4H40-bN
T9 chain: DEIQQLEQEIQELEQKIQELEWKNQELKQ

T10: 4H477-bN
T10 chain: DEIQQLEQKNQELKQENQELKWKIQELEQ

T11: 4H492-bN
T11 chain: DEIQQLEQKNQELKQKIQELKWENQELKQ

T12: 4H591-bN
T12 chain: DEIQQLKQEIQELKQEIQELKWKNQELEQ

T13: 4H626-bN
T13 chain: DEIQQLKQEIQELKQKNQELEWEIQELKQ

T14: 4H741-bN
T14 chain: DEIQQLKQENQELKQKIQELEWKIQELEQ

T15: 4H754-bN
T15 chain: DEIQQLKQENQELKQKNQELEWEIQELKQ

T16: 4H906-bN
T16 chain: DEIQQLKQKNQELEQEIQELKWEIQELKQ

T17: P2-AA-1HAA-D
T17 chain: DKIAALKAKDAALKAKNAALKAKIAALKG

T18: P2-AA-1HAA-E
T18 chain: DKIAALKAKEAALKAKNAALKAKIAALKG

T19: P2-AA-1HAA-I
T19 chain: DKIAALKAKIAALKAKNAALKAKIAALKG

T20: P2-AA-1HAA-T
T20 chain: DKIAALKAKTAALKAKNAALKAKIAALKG

T21: P2-AA-1HAA-V
T21 chain: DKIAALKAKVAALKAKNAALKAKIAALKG

T22: P2-AA
T22 chain: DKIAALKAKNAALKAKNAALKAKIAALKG

T23: P2-AA-1HAA-R
T23 chain: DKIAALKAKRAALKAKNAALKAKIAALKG

T24: 4H3172-bN
T24 chain: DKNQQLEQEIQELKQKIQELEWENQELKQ

T25: 4H3414-bN
T25 chain: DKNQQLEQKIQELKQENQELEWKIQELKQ

T26: 4H3631-bN
T26 chain: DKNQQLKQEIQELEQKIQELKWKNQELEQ

T27: 4H3638-bN
T27 chain: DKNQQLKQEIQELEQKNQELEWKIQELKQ

T28: 4H3817-bN
T28 chain: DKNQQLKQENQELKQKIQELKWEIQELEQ

T29: 4H3974-bN
T29 chain: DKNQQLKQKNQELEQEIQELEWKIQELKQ

T30: 4H570-bN
T30 chain: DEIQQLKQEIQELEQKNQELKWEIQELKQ

T31: 4H584-bN
T31 chain: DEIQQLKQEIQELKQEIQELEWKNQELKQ

T32: 4H619-bN
T32 chain: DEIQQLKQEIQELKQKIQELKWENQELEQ

T33: 4H850-bN
T33 chain: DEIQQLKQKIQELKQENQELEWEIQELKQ


Experiments:
4H3277-bN = molecular target: T1, 4H3277-bN; assay: two-hybrid library CCNG1;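 also: natural log of median RNA to DNA barcode read ratio; higher means stronger binding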
4H3298-bN = molecular target: T2, 4H3298-bN; assay: two-hybrid library CCNG1;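 also: natural log of median RNA to DNA barcode read ratio; higher means stronger binding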
4H3462-bN = molecular target: T3, 4H3462-bN; assay: two-hybrid library CCNG1;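 also: natural log of median RNA to DNA barcode read ratio; higher means stronger binding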
4H348-bN = molecular target: T4, 4H348-bN; assay: two-hybrid library CCNG1;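 also: natural log of median RNA to DNA barcode read ratio; higher means stronger binding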
4H3497-bN = molecular target: T5, 4H3497-bN; assay: two-hybrid library CCNG1;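 also: natural log of median RNA to DNA barcode read ratio; higher means stronger binding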
4H3613-bN = molecular target: T6, 4H3613-bN; assay: two-hybrid library CCNG1;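 also: natural log of median RNA to DNA barcode read ratio; higher means stronger binding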
4H3628-bN = molecular target: T7, 4H3628-bN; assay: two-hybrid library CCNG1
4H3926-bN = molecular target: T8, 4H3926-bN; assay: two-hybrid library CCNG1
4H40-bN = molecular target: T9, 4H40-bN; assay: two-hybrid library CCNG1
4H477-bN = molecular target: T10, 4H477-bN; assay: two-hybrid library CCNG1
4H492-bN = molecular target: T11, 4H492-bN; assay: two-hybrid library CCNG1
4H591-bN = molecular target: T12, 4H591-bN; assay: two-hybrid library CCNG1
4H626-bN = molecular target: T13, 4H626-bN; assay: two-hybrid library CCNG1
4H741-bN = molecular target: T14, 4H741-bN; assay: two-hybrid library CCNG1
4H754-bN = molecular target: T15, 4H754-bN; assay: two-hybrid library CCNG1
4H906-bN = molecular target: T16, 4H906-bN; assay: two-hybrid library CCNG1
P2-AA-1HAA-D = molecular target: T17, P2-AA-1HAA-D; assay: two-hybrid library CCmax; conditions: mean of both orientations
P2-AA-1HAA-E = molecular target: T18, P2-AA-1HAA-E; assay: two-hybrid library CCmax; conditions: mean of both orientations
P2-AA-1HAA-I = molecular target: T19, P2-AA-1HAA-I; assay: two-hybrid library CCmax; conditions: mean of both orientations
P2-AA-1HAA-T = molecular target: T20, P2-AA-1HAA-T; assay: two-hybrid library CCmax; conditions: mean of both orientations
P2-AA-1HAA-V = molecular target: T21, P2-AA-1HAA-V; assay: two-hybrid library CCmax; conditions: mean of both orientations
P2-AA = molecular target: T22, P2-AA; assay: two-hybrid library CCmax; conditions: mean of both orientations
P2-AA-1HAA-R = molecular target: T23, P2-AA-1HAA-R; assay: two-hybrid library CCmax; conditions: mean of both orientations
4H3172-bN = molecular target: T24, 4H3172-bN; assay: two-hybrid library CCNG1
4H3414-bN = molecular target: T25, 4H3414-bN; assay: two-hybrid library CCNG1
4H3631-bN = molecular target: T26, 4H3631-bN; assay: two-hybrid library CCNG1
4H3638-bN = molecular target: T27, 4H3638-bN; assay: two-hybrid library CCNG1
4H3817-bN = molecular target: T28, 4H3817-bN; assay: two-hybrid library CCNG1
4H3974-bN = molecular target: T29, 4H3974-bN; assay: two-hybrid library CCNG1
4H570-bN = molecular target: T30, 4H570-bN; assay: two-hybrid library CCNG1
4H584-bN = molecular target: T31, 4H584-bN; assay: two-hybrid library CCNG1
4H619-bN = molecular target: T32, 4H619-bN; assay: two-hybrid library CCNG1
4H850-bN = molecular target: T33, 4H850-bN; assay: two-hybrid library CCNG1

Binder	interaction score (4H3298-bN)	interaction score (4H3462-bN)	interaction score (4H3497-bN)	interaction score (4H3613-bN)	interaction score (4H3628-bN)	interaction score (4H3926-bN)	interaction score (4H591-bN)	interaction score (4H626-bN)	interaction score (4H906-bN)	interaction score (P2-AA-1HAA-D)	interaction score (P2-AA-1HAA-E)	interaction score (P2-AA-1HAA-I)	interaction score (P2-AA-1HAA-T)	interaction score (P2-AA-1HAA-V)	interaction score (P2-AA)	other results
DEIAALEAEVAALEAENAALEAEIAALEG [P1-AA-1HAA-V]	–	–	–	–	–	–	–	–	–	1.95	1.98	2.11	2.16	2.01	2.01	–
DEIAALEAEYAALEAENAALEAEIAALEG [P1-AA-1HAA-Y]	–	–	–	–	–	–	–	–	–	0.371	0.866	2.07	1.95	1.99	2.07	interaction score (P2-AA-1HAA-R): 1.52
DKNQQLEQEIQELKQKIQELEWENQELKQ [4H3172-bN]	–	–	–	–	–	–	–	–	-1.5	–	–	–	–	–	–	interaction score (4H3172-bN): -0.109; interaction score (4H3414-bN): 0.0803; interaction score (4H3631-bN): 1.27; interaction score (4H3638-bN): -0.362; interaction score (4H3817-bN): -0.519; interaction score (4H3974-bN): -0.234; interaction score (4H570-bN): -0.602; interaction score (4H584-bN): -0.681; interaction score (4H619-bN): 0.271; interaction score (4H850-bN): -0.789

Second part, led by results:

interaction score (4H3298-bN)	interaction score (4H3462-bN)	interaction score (4H3497-bN)	interaction score (4H3613-bN)	interaction score (4H3628-bN)	interaction score (4H3926-bN)	interaction score (4H591-bN)	interaction score (4H626-bN)	interaction score (4H906-bN)	interaction score (P2-AA-1HAA-D)	interaction score (P2-AA-1HAA-E)	interaction score (P2-AA-1HAA-I)	interaction score (P2-AA-1HAA-T)	interaction score (P2-AA-1HAA-V)	interaction score (P2-AA)	Binder	other results
-0.281	-1	-0.895	-1.08	-0.458	-0.4	-1.66	-0.819	-1.79	–	–	–	–	–	–	DKNQQLEQENQELKQEIQELKWKIQELEQ [4H3277-bN]	interaction score (4H3277-bN): 1.19; interaction score (4H348-bN): -1.89; interaction score (4H40-bN): 0.44; interaction score (4H477-bN): -1.11; interaction score (4H492-bN): -1.45; interaction score (4H741-bN): -0.405; interaction score (4H754-bN): -1.54
-2.82	-0.0887	-1.06	-1.42	-0.916	-1.32	-0.882	-1.27	-0.217	–	–	–	–	–	–	DKNQQLEQENQELKQKIQELEWEIQELKQ [4H3298-bN]	–
